From PMC8916728 come the findings set out here.

The Kd is a measure of binding affinity in units of concentration. Lower therefore signals higher affinity.

Assay [1] deals with monoFc-tagged NRP2 (human neuropilin 2 a1a2b1b2, residues 23 to 595) (human) (UniProt O60462). The experiment in a line: BLI. On the technique in general: Biolayer interferometry detects binding as a change in optical thickness at a sensor tip.
Assay [2] has as its target NRP2 a2b1b2 (human neuropilin 2 residues 145 to 595, monomeric IgG1 Fc tag) (human) (UniProt O60462). The experiment in a line: BLI.

NRP2 a2b1b2 (human neuropilin 2 residues 145 to 595, monomeric IgG1 Fc tag) (human), sequence (O60462 145-595): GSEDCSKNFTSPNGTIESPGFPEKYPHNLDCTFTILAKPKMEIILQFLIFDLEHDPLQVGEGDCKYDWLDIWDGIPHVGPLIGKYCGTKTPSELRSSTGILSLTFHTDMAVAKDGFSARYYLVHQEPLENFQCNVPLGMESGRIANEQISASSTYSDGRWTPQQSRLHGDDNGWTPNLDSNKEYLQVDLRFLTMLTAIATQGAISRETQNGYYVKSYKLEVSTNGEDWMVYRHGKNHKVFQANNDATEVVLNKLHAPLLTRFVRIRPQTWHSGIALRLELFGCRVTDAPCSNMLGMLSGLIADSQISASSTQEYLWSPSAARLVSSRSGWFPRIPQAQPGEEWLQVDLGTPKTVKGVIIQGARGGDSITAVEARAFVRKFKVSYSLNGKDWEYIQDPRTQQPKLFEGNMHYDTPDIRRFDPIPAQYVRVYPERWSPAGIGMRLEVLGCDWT
monoFc-tagged NRP2 (human neuropilin 2 a1a2b1b2, residues 23 to 595) (human), sequence (O60462 23-595): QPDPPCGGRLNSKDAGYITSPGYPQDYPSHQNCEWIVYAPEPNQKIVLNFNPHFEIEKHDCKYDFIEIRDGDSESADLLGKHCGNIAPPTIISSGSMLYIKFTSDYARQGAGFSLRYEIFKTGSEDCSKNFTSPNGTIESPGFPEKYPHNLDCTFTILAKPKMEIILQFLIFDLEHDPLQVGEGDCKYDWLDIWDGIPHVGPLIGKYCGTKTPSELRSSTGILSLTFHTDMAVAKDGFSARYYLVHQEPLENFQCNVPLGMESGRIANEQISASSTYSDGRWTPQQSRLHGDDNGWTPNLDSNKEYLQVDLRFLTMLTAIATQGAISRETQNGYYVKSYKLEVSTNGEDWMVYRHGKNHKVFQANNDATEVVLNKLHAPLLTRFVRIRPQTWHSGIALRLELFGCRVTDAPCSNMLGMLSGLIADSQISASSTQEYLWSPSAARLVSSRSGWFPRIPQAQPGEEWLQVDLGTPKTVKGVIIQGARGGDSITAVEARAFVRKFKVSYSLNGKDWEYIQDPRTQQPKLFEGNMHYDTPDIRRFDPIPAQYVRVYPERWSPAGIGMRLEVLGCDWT

As for “soluble ectodomain of the HCMV Pentamer (strain Towne) (from UniProt P17176 24-718) (complex)”, the Kd in assay [1] was found to be 2.2 nM; in assay [2], 7.9 nM.
